From patent US20230357447A1 (JANUX THERAPEUTICS, published 2023)
Ends that are not written are not given here.

B1: Phage-88 (peptide)
peptide: MDWCPIHLWHYCFN
B2: Phage-97 (peptide)
peptide: MDWCPKDLWDYCFA
B3: Phage-45 (peptide)
peptide: MDWCPRPLWHECFS
B4: Phage-56 (second entry so labelled, SEQ ID NO: 255) (peptide)
peptide: MDWCPRYLWNECFY
notes: label printed as Phage-56 between Phage-65 and Phage-67, probably Phage-66
B5: Phage-61 (peptide)
peptide: MVSCPTTMWNRCFN
B6: Phage-37 (peptide)
peptide: MHWCPVDLWYLCYN
B7: Phage-33 (peptide)
peptide: MDWCPRFMWDECFN
B8: Phage-29 (peptide)
peptide: MDWCPRDLWVHCFA
B9: Phage-90 (peptide)
peptide: MDWCPIDLWHLCFY
B10: Phage-32 (peptide)
peptide: MDWCPRDMWSVCFS
B11: Phage-41 (peptide)
peptide: MAWCPRDKWSECFS
B12: Phage-59 (peptide)
peptide: MDWCPRDSWHLCFA
B13: Phage-39 (peptide)
peptide: MDWCPMHLWHQCFN
B14: Phage-22 (peptide)
peptide: MNWCPKDIWYLCFN
B15: Phage-57 (peptide)
peptide: MDWCPRHRWVDCFY
B16: Phage-42 (peptide)
peptide: MDWCPRHLWVHCFN
B17: Phage-53 (peptide)
peptide: MDWCPMHLWNKCFN
B18: Phage-51 (peptide)
peptide: MDWCPMDLWDYCFN
B19: Phage-71 (peptide)
peptide: MDWCPRYLWHECFA
B20: Phage-73 (peptide)
peptide: MDWCPRALWHECFN
B21: Phage-80 (peptide)
peptide: MDWCPMYLWNECFS
B22: Phage-38 (peptide)
peptide: MDWCPVHLWSVCFA
B23: Phage-116 (peptide)
peptide: MDWCPRDLWYACFA
B24: Phage-75 (peptide)
peptide: MDWCPRSHWHVCYN
B25: Phage-36 (peptide)
peptide: MDWCPRYLWHVCFA
B26: Phage-102 (peptide)
peptide: MDWCPRYLWAECFY
B27: Phage-70 (peptide)
peptide: ITWCPSSMWNRCFI
B28: Phage-94 (peptide)
peptide: MDWCPRDLWSLCFY
B29: Phage-62 (peptide)
peptide: MDWCPSYLWNECFF
B30: Phage-89 (peptide)
peptide: MDWCPRALWNVCFN
B31: Phage-83 (peptide)
peptide: MDWCPRFLWDECFN
B32: Phage-69 (peptide)
peptide: MDWCPIHMWADCFA
B33: Phage-24 (peptide)
peptide: MDWCPLYLWNECFN
B34: Peptide-50 (peptide)
peptide: MDWCPVHLWSVCFA
modifications: cysteine pairing not given here; also: biotinylated, site not given here
notes: Synthetic biotinylated peptide loaded on streptavidin biosensors
B35: Peptide-49 (peptide)
peptide: MHWCPVDLWYLCYN
modifications: cysteine pairing not given here; also: biotinylated, site not given here
notes: as for B34
B36: Phage-19 (peptide)
peptide: MDWCPIDLWNECFF
B37: Phage-79 (peptide)
peptide: MDWCPRDLWHECFS
B38: Phage-86 (peptide)
peptide: MDWCPRHLWAECFF
B39: Phage-114 (peptide)
peptide: MDWCPRYLWFECFA

molecular target: T1, Anti-CD28 scFv (VH-linker 1-VL) (biotinylated (site not stated)); experiment: phage ELISA, scFv wells pre-incubated with soluble CD28 (competitor); background signal 0.078
T1 construct: biotinylated and captured on neutravidin coated plates in the phage ELISA

In order of rising “Phage binding ELISA CD28 scFv signal in presence of CD28” value:
1. B3  0.121
2. B2  0.165
3. B1  0.453

molecular target: T1, Anti-CD28 scFv (VH-linker 1-VL); experiment: phage ELISA, captured biotinylated scFv; background signal 0.079

In order of rising “Phage binding ELISA CD28 scFv signal” value:
1. B5  1.33
2. B4  2.54
3. B6  2.66
4. B7  2.68

molecular target: T1, Anti-CD28 scFv (VH-linker 1-VL); experiment: phage ELISA, scFv wells pre-incubated with soluble CD28 (competitor); background signal 0.062

In order of falling “Phage binding ELISA CD28 scFv signal in presence of CD28” value:
1. B9  0.488
2. B10  0.207
3. B8  0.179
4. B11  0.147

molecular target: T1, Anti-CD28 scFv (VH-linker 1-VL); experiment: phage ELISA, captured biotinylated scFv; background signal 0.073

In order of rising “Phage binding ELISA CD28 scFv signal” value:
1. B15  0.478
2. B12  2.45
3. B13  2.56
4. B14  2.62

molecular target: T1, Anti-CD28 scFv (VH-linker 1-VL); experiment: phage ELISA, scFv wells pre-incubated with soluble CD28 (competitor); background signal 0.071

In order of falling “Phage binding ELISA CD28 scFv signal in presence of CD28” value:
1. B19  0.429
2. B21  0.411
3. B20  0.401
4. B16  0.254
5. B17  0.122
6. B18  0.107

molecular target: T1, Anti-CD28 scFv (VH-linker 1-VL); experiment: phage ELISA, captured biotinylated scFv; background signal 0.072

In order of falling “Phage binding ELISA CD28 scFv signal” value:
1. B22  2.65
2. B25  2.48
3. B23  2.47
4. B24  1.95

molecular target: T1, Anti-CD28 scFv (VH-linker 1-VL); experiment: phage ELISA, scFv wells pre-incubated with soluble CD28 (competitor); background signal 0.063

For B26, the “Phage binding ELISA CD28 scFv signal in presence of CD28” value was 0.354.

molecular target: T1, Anti-CD28 scFv (VH-linker 1-VL); experiment: phage ELISA, scFv wells pre-incubated with soluble CD28 (competitor); background signal 0.065

In order of falling “Phage binding ELISA CD28 scFv signal in presence of CD28” value:
1. B31  0.483
2. B30  0.472
3. B33  0.247
4. B28  0.246
5. B32  0.143
6. B29  0.133
7. B27  0.11

molecular target: T1, Anti-CD28 scFv (VH-linker 1-VL); experiment: phage ELISA, captured biotinylated scFv; background signal 0.062

In order of falling “Phage binding ELISA CD28 scFv signal” value:
1. B10  2.62
2. B9  2.59
3. B8  2.55
4. B11  0.853

molecular target: T1, Anti-CD28 scFv (VH-linker 1-VL); experiment: phage ELISA, scFv wells pre-incubated with soluble CD28 (competitor); background signal 0.072

In order of rising “Phage binding ELISA CD28 scFv signal in presence of CD28” value:
1. B25  0.226
2. B23  0.242
3. B24  0.281
4. B22  0.302

molecular target: T1, Anti-CD28 scFv (VH-linker 1-VL); experiment: phage ELISA, scFv wells pre-incubated with soluble CD28 (competitor); background signal 0.079

In order of rising “Phage binding ELISA CD28 scFv signal in presence of CD28” value:
1. B5  0.072
2. B7  0.256
3. B4  0.358
4. B6  0.417

molecular target: T1, Anti-CD28 scFv (VH-linker 1-VL); experiment: phage ELISA, captured biotinylated scFv; background signal 0.078

In order of falling “Phage binding ELISA CD28 scFv signal” value:
1. B1  2.6
2. B2  2.57
3. B3  2.35

molecular target: T1, Anti-CD28 scFv (VH-linker 1-VL); experiment: phage ELISA, scFv wells pre-incubated with soluble CD28 (competitor); background signal 0.073

In order of falling “Phage binding ELISA CD28 scFv signal in presence of CD28” value:
1. B13  0.299
2. B14  0.168
3. B12  0.147
4. B15  0.11

molecular target: T1, Anti-CD28 scFv (VH-linker 1-VL); experiment: phage ELISA, captured biotinylated scFv; background signal 0.071

In order of rising “Phage binding ELISA CD28 scFv signal” value:
1. B17  1.04
2. B18  1.64
3. B16  2.5
4. B19  2.63
5. B20  2.69

molecular target: T2, Ab-12, anti-PD-L1xCD28 non-masked antibody in Vh format; experiment: competition ELISA: peptide titrated against 5 nM Ab-12; binding of Ab-12 to captured biotinylated CD28 antigen is read
T2 construct: also called PDL1xCD28 non-masked (Vh)

In order of falling IC50:
1. B34  2340 nM
2. B35  170 nM

molecular target: T1, Anti-CD28 scFv (VH-linker 1-VL); experiment: phage ELISA, captured biotinylated scFv; background signal 0.065

In order of rising “Phage binding ELISA CD28 scFv signal” value:
1. B27  0.379
2. B29  2
3. B32  2.46
4. B28  2.57
5. B30  2.6
6. B33  2.61
7. B31  2.63

molecular target: T1, Anti-CD28 scFv (VH-linker 1-VL); experiment: phage ELISA, captured biotinylated scFv; background signal 0.066

In order of falling “Phage binding ELISA CD28 scFv signal” value:
1. B37  2.65
2. B38  2.61
3. B36  2.52
4. B39  2.5

molecular target: T1, Anti-CD28 scFv (VH-linker 1-VL); experiment: phage ELISA, scFv wells pre-incubated with soluble CD28 (competitor); background signal 0.066

In order of rising “Phage binding ELISA CD28 scFv signal in presence of CD28” value:
1. B36  0.187
2. B39  0.21
3. B38  0.292
4. B37  0.382
